Data on one substance can be found in article PMC8151308.

The target of this assay is LEL CD81-SA labelled with Cy3 (UniProt P60033). Kind of assay: dynamic light scattering + other: nanoparticle tracking analysis; nanotraps (LEL CD81-SA-Cy3 on PEG-b-PLA nanoparticles, 0.50 mg/mL) mixed with HC VMPs (E2-GFP on PEG-b-PLA nanoparticles, 0.15 mg/mL) in 0.01 M sodium phosphate buffer pH 7.4, 25 °C; aggregation monitored after 5, 10, 20 and 30 min.

For the substance “chimeric E2 core-GFP protein (E2 core, 412-645 a.a., of hepatitis C virus fused with superfolder GFP) (from UniProt P27958 412-645) (domain or fragment)”, the percentage of aggregates (DLS, after 30 min) stood at 33%.
